Reference: PMC7156724, “Potent BRD4 inhibitor suppresses cancer cell-macrophage interaction” (Nature Communications, 2020)
Values joined by “and” are separate entries in the source; they are usually repeats but may differ in a detail not shown here. Identical values can stand only once.

How the values were obtained:
in vitro [1] = settings: human
Method: (§1) The concentration was calculated using the peak area ratio of analyte and internal […]
(§2) The results were calculated by the following equations:
(§3) % Unbound = 100 *FC / TC, % Bound = 100 * (1-FC / TC)
(§4) % Recovery = 100 * (FC + TC) / T0
(§5) TC = Total compound concentration as determined by the calculated concentration on the retentate side of the membrane
(§6) FC = Free compound concentration as determined by the calculated concentration on the dialysate side of the membrane […]
(§7) Equation of first order kinetics: […]
(§8) 8. Equilibrium dialysis assay. Binding with plasma protein and recovery rate of NHWD-870 were performed with human, CD-1 mouse and SD rat plasma as […]
(§9) described 2. […] The concentration was […]
(§10) calculated using the peak area ratio of analyte and internal standard. The results were calculated by the following equations: % Unbound = 100 *FC / TC, % Bound = 100 * (1-FC / TC); % Recovery = 100 * (FC + TC) / T0; TC = Total compound concentration as determined by the calculated concentration on the retentate side of the membrane; FC = Free compound concentration as determined by the (1 picture or pasted object on this page, not shown here) […]
(§11) calculated concentration on the dialysate side of the membrane; T0 = To t a l compound concentration as determined before dialysis. […]
(§12) 10. hERG channel assay. […]
(§13) HEK293 cell line stably

in vitro [2] = settings: CD-1, mouse
Method: as §1, §2, §3, §4, §5, §6, §7, §8, §9, §10, §11, §12, §13

in vitro [3] = settings: SD, rat
Method: as §1, §2, §3, §4, §5, §6, §7, §8, §9, §10, §11, §12, §13

TAMs [4] = test: Number of TAMs after treatment with CSF1; type: cell-based, mouse
Method: Fig. 6 CSF1/CSF1R signaling is critical for the tumor inhibitory effects of NHWD-870 and CSF1 induced ovarian cancer growth depends on macrophages. a Number of TAMs after treatment with the indicated concentration of CSF1 for 48 h. Data are presented as mean ± SEM from three independent experiments. b–d Schematics of the experiments (b). A2780 cells (pre-treated with DMSO or 100 nM NHWD-870 for 48 h) were seeded into the top chamber (transwell size: 0.4 μm), and TAMs (Mac, 40,000 cells per 24-well) in medium with PBS or 10 ng/ml CSF1 (c), or 50 ng/ml IgG or anti-CSF1R antibodies (d), were seeded into the bottom chamber. Shown are quantification of TAMs (c, d). Data are presented as mean ± SEM from three independent experiments. e Representative western blot analysis of A2780 cells stably transfected with CSF1 or empty vector (EV). Selected from three independent experiments. f Schematics of the animal experiments using an orthotopic mouse OC model, established by intraperitoneally injecting 1 × 10^6 (g–j) or 2 × 10^6 (k–m) human A2780 cells overexpressing CSF1 or control into female recipient nude mice. Mice were then treated with/without liposomal clodronate (LC) for 45 days (g–j) or treated with/without NHWD-870 (PO, QD, 3 mg/kg) for 37 days (k–m). g Increased mouse body weight was measured at the indicated time points (day 0-45 after LC treatment). h–j Net tumor weight (h), ascitic fluid volumes (i) tumor implantations in peritoneum, omentum and pevic cavity (j) were measured at day 45 from LC treatment. k–m Net tumor weight (k), ascitic fluid volumes (l) tumor implantations in peritoneum, omentum and pevic cavity (m) were measured at day 37 after NHWD-870 treatment. For g–m, data are presented as mean ± SEM from five different mice. p values were calculated using two-tailed, unpaired t tests in this figure. n.s, not significant; *p < 0.05; **p < 0.01; and ***p < 0.001. Source data are provided as a Source Data file. […]

TAMs [5] = test: Transwell co-culture of pretreated A2780 cells and TAMs with CSF1 or anti-CSF1R antibodies; type: cell-based, mouse; settings: 10 ng/ml CSF1
Method: Fig. 6 CSF1/CSF1R signaling is critical for the tumor inhibitory effects of NHWD-870 and CSF1 induced ovarian cancer growth depends on macrophages. a Number of TAMs after treatment with the indicated concentration of CSF1 for 48 h. Data are presented as mean ± SEM from three independent experiments. b–d Schematics of the experiments (b). A2780 cells (pre-treated with DMSO or 100 nM NHWD-870 for 48 h) were seeded into the top chamber (transwell size: 0.4 μm), and TAMs (Mac, 40,000 cells per 24-well) in medium with PBS or 10 ng/ml CSF1 (c), or 50 ng/ml IgG or anti-CSF1R antibodies (d), were seeded into the bottom chamber. Shown are quantification of TAMs (c, d). Data are presented as mean ± SEM from three independent experiments. e Representative western blot analysis of A2780 cells stably transfected with CSF1 or empty vector (EV). Selected from three independent experiments. f Schematics of the animal experiments using an orthotopic mouse OC model, established by intraperitoneally injecting 1 × 10^6 (g–j) or 2 × 10^6 (k–m) human A2780 cells overexpressing CSF1 or control into female recipient nude mice. Mice were then treated with/without liposomal clodronate (LC) for 45 days (g–j) or treated with/without NHWD-870 (PO, QD, 3 mg/kg) for 37 days (k–m). g Increased mouse body weight was measured at the indicated time points (day 0-45 after LC treatment). h–j Net tumor weight (h), ascitic fluid volumes (i) tumor implantations in peritoneum, omentum and pevic cavity (j) were measured at day 45 from LC treatment. k–m Net tumor weight (k), ascitic fluid volumes (l) tumor implantations in peritoneum, omentum and pevic cavity (m) were measured at day 37 after NHWD-870 treatment. For g–m, data are presented as mean ± SEM from five different mice. p values were calculated using two-tailed, unpaired t tests in this figure. n.s, not significant; *p < 0.05; **p < 0.01; and ***p < 0.001. Source data are provided as a Source Data file.
CD45^+CD11b^+F4/80^+ TAMs were isolated from peritoneal metastasis of A2780 tumor-bearing mice and cultured in RPMI-1640 supplemented with 10% FBS, 1% penicillin/streptomycin, and 0–50 ng/ml CSF1 (R&D Systems) as indicated according to standard protocols. In the cancer cell-macrophage co-culture experiments, CSF1 was not added. In the transwell (Corning, pore size, 0.4 μm) co-culture experiments, tumor cells were placed into the upper chamber, and TAMs were seeded into the lower chamber.

[6] = system: PI3K/AKT1 and ERK phosphorylation; test: Western blot of p-PI3K, p-AKT1 and p-ERK in TAMs; type: cell-based, mouse
Method: Supplementary Figure 13. NHWD-870 inhibited CSF1/CSF1R signaling pathw ay to reduce TAM […]
TA M s ( 2 ×10^5 cells) (treated with or without 10 ng/ml CSF1 and 100 nM NHWD-870 for 48 h) were seeded into the 6-well bottom chamber, in the presence or absence of A2780 cells (pre-treated with or without 100 nM NHWD-870 for 48 h) seeded into the top chamber (transwell size: 0.4μm). Shown are schematics of the experiment and representative western blot analysis of the indicated proteins (a), and quantification of the relative levels of p-PI3K, p-AKT1 and p-ERK over their respective total protein (b). Data are presented as mean ± SEM from 3 independent experiments. p values were calculated using two-tailed, unpaired t tests. n.s, no significant; **, p<0.01; ***, p<0.001. Source data are provided as a Source Data file. […]
4. Protein extraction and w estern blot anal ysis. Freshly dissected unfixed tissue was homogenized in lysis buffer. The lysates were centrifuged at 13,000g for 10 minutes at 4°C. Supernatants were collected and determined with a Bradford Protein Assay kit (Bio-Rad, Hercules, CA). The cell lysates were subjected to SDS-PAGE followed by immunoblotting (Immobilon P; Millipore, Milford, MA) with specific antibodies followed by detection using an enhanced chemilumine scence kit (Amersham Life Science, Arlington Heights, IL). […]

TAMs [7] = test: Ki67 FACS of TAMs induced by CSF1; type: cell-based, mouse; settings: CSF1 treatment
Method: Flow cytometry analyses were performed using antibodies listed in Supplementary Table 8. For cell surface markers, mouse TAM suspensions were stained with mouse APC-CD45, FITC-CD11b, PE-F4/80 or APC-F4/80, CD68, and PE-CD206 antibodies for 15 min on ice. For Ki67 staining, cells were fixed in 4% paraformaldehyde and stained with FITC-Ki67. Isotype matching antibody served as the negative control. Flow cytometry was performed on a FACSCalibur (BD Biosciences). Data were analyzed with BD CellQuest Pro software version 5.1.
Supplementary Figure 14. NHWD-870 and BRD4 deletion partially inhibite d prolifera tion of TAMs […]
(a) CD45+CD11b+F4/80 + TAMs in the orthotopic B16 melanoma model were harvested from tumors. Shown are representative FACS plots of TAMs. (b,c) Representative FACS plots (b) and quantification (c) of Ki67+ macrophages treated with 50 ng/ml CSF1, and DMSO or 25 or 50 nM NHWD-870. […]
TAMs induced by CSF1. (a-c) CD11b+F4/80+ macrophages in the orthotopic B16F10 melanoma model were harvested from tumor tissues. Shown are representative CD45+, CD11b+, F4/80+ FACS plots (a) and quantification of the percentage of Ki67+ cells after treatment with DMSO or NHWD-870 dependent on CSF1 stimulation (b,c). (d-g) FACS plots and quantification of the percentage of Ki67+ cells after CRISPR/Cas9-mediated BRD4 knockout (d,e) and c-MYC knockout (f,g) in CD11b+F4/80+ macrophages. CSF1 is added at the indicated concentration.
Please also see response to comment # 4 about our 2D assays, in which we used colony number to quantify the number of TAMs.
NHWD-870 treatment and the main differences are colony size.
6. For comparison purposes, it would be a good idea to compare the direct effect of NHWD-870 on in […]
marrow derived macrophage proliferation and gene expression in vitro). […]

[8] = CSF1 treatment, individual replicates, Ctrl about 1

Molecule | recovery (in vitro [1]) [%] | recovery (in vitro [2]) [%] | recovery (in vitro [3]) [%] | proliferation of TAMs (TAMs [4]; 48 h) | Number of TAMs (Fig.6a) (TAMs [4]; CSF1 10) | Number of TAMs (Fig.6a) (TAMs [4]; CSF1 50) | rescue of TAM proliferation in co-culture with NHWD-870 pretreated A2780 cells (TAMs [5]) | PI3K/AKT1 and ERK phosphorylation in TAMs ([6]; 10 ng/ml CSF1) | p-AKT1 (Sup Fig.13b quantification) [6, 8] | p-ERK (Sup Fig.13b quantification) [6, 8] | p-PI3K (Sup Fig.13b quantification) [6, 8] | fold induction of TAM proliferation (TAMs [7]) [fold]
CC(=O)CC(c1ccccc1)c1c(O)c2ccccc2oc1=O (stereo not drawn) [Warfarin, reference compound] | 90.2 | 99.2 | 86.8 |  |  |  |  |  |  |  |  | 
CSF1: macrophage colony-stimulating factor, purchased from R&D Systems (protein, UniProt P09603 33-554, looked up) Macrophage colony-stimulating …: EEVSEYCSHMIGSGHLQSLQRLIDSQMETSCQITFEFVDQEQLKDPVCYLKKAFLLVQDIMEDTMRFRDNTPNAIAIVQLQELSLRLKSCFTKDYEEHDKACVRTFYETPLQLLEKVKNVFNETKNLLDKDWNIFSKNCNNSFAECSSQDVVTKPDCNCLYPKAIPSSDPASVSPHQPLAPSMAPVAGLTWEDSEGTEGSSLLPGEQPLHTVDPGSAKQRPPRSTCQSFEPPETPVVKDSTIGGSPQPRPSVGAFNPGMEDILDSAMGTNWVPEEASGEASEIPVPQGTELSPSRPGGGSMQTEPARPSNFLSASSPLPASAKGQQPADVTGTALPRVGPVRPTGQDWNHTPQKTDHPSALLRDPPEPGSPRISSLRPQGLSNPSTLSAQPQLSRSHSSGSVLPLGELEGRRSTRDRRSPAEPEGGPASEGAARPLPRFNSVPLTDTGHERQSEGSFSPQLQESVFHLLVPSVILVLLAVGGLLFYRWRRRSHQEPQRADSPLEQPEGSPLTQDDRQVELPV |  |  |  | increased proliferation of TAMs in a dose-dependent manner | 15.5 and 19.7 and 20.1 | 45.6 and 59.6 and 67.2 | partially rescue the inhibitory effects of NHWD-870 | induced PI3K/AKT1 and ERK phosphorylation | 7.5 and 6.3 and 5.51 | 3.68 and 4.51 and 5.3 | 3.62 and 4.72 and 3.2 | > 10
